The values that follow come from publication PMC12362618, “Development of the First Small-Molecule Inhibitor Targeting Oncostatin M for Treatment of Breast Cancer” (Journal of Medicinal Chemistry, 2025).

In the test the target is T1, glycoprotein 130 (UniProt P40189 23-619).
T1 construct: gp130 (glycoprotein 130), bought recombinant protein; also called gp130; source: bought: R&D Systems
T1 sequence (looked up): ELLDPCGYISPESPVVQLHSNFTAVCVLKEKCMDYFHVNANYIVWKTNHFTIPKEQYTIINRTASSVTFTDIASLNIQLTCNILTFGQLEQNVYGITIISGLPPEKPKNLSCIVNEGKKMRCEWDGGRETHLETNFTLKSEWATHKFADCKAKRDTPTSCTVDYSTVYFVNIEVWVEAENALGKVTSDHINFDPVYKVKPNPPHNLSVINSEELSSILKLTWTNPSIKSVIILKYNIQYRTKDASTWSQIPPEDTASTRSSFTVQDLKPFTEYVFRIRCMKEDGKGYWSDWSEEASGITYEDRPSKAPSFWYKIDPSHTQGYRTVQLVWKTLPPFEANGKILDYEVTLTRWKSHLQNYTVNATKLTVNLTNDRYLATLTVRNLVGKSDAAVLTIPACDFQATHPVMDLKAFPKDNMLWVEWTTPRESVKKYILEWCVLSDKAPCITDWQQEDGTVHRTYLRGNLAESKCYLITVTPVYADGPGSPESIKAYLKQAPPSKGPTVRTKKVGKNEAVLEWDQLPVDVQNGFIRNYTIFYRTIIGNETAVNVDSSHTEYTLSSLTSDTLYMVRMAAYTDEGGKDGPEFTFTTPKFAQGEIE
In words: SPR; kinetics; OSM immobilised by EDC/NHS coupling on a carboxyl mixed self-assembled monolayer gold chip (Reichert SR7000), increasing concentrations of gp130 injected; 25 °C; PBS with 0.005% Tween-20; 30 μL/min. The following applies: both partners purified.

B1: Oncostatin M (ligand, human, UniProt P13725 26-221, looked up)
chain: AAIGSCSKEYRVLLGQLQKQTDLMQDTSRLLDPYIRIQGLDVPKLREHCRERPGAFPSEETLRGLGRRGFLQTLNATLGCVLHRLADLEQRLPKAQDLERSGLNIEDLEKLQMARPNILGLRNNIYCMAQLLDNSDTAEPTKAGRGASQPPTPTPASDAFQRKLEGCRFLHGYHRFMHSVGRVFSKWGESPNRSRR
notes: Oncostatin M, human; about 24 kDa; immobilised for SPR; The construct is only 'as previously described'; also called OSM; source: recombinant OSM, 'as previously described'
In the case of B1, the Kd stood at 20.5 nM.
